Data set [1] has as its target T1, TrfA wt (G254D/S267L, 33 kDa) (plasmid RK2, UniProt P07676 98-382, G254D;S267L).
T1 sequence: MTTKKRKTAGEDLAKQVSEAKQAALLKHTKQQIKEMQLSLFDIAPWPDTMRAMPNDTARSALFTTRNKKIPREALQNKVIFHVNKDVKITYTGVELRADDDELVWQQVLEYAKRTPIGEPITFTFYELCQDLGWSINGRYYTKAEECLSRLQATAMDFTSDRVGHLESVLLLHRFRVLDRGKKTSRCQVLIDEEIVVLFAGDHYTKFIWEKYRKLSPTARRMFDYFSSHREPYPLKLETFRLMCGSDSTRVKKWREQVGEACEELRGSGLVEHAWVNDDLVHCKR
Description: crosslinking-MS.

For data set [2], the target named is T1, TrfA wt (G254D/S267L, 33 kDa). Description: UV crosslinking.

B1: 40T (dsDNA)
DNA 1: AGTGATGACAGATGAGGGGCGC
DNA 2: GCGCCCCTCATCTGTCATCACT
modifications: C2dT at T18 of bottom strand
Turning to B1, the binding result in data set [1] is reported as “binds”.

B2: 3T (dsDNA)
DNA 1: AGTGATGACAGATGAGGGGCGC
DNA 2: GCGCCCCTCATCTGTCATCACT
modifications: C2dT at T3 of top strand
In the case of B2, the binding result in data set [1] was “binds”.

B3: 53T (dsDNA)
DNA 1: CCTGCGGTATTGACACTTGAGGGGCGCGACTACTGACAGATGAGGGGCGCGATCCTTGACACTTGAGGGGCAGAGTGATGACAGATGAGGGGCGCACCTATTGACATTTGAGGGGCTGTCCACAGGCAG
DNA 2: CTGCCTGTGGACAGCCCCTCAAATGTCAATAGGTGCGCCCCTCATCTGTCATCACTCTGCCCCTCAAGTGTCAAGGATCGCGCCCCTCATCTGTCAGTAGTCGCGCCCCTCAAGTGTCAATACCGCAGG
modifications: 5-Br-dU at T53 of top strand
For B3, in data set [2], the binding result was “binds”.

B4: 58B (dsDNA)
DNA 1: CCTGCGGTATTGACACTTGAGGGGCGCGACTACTGACAGATGAGGGGCGCGATCCTTGACACTTGAGGGGCAGAGTGATGACAGATGAGGGGCGCACCTATTGACATTTGAGGGGCTGTCCACAGGCAG
DNA 2: CTGCCTGTGGACAGCCCCTCAAATGTCAATAGGTGCGCCCCTCATCTGTCATCACTCTGCCCCTCAAGTGTCAAGGATCGCGCCCCTCATCTGTCAGTAGTCGCGCCCCTCAAGTGTCAATACCGCAGG
modifications: 5-Br-dU in bottom strand: CACTC[BrdU]GCCCC
For B4, the binding result in data set [2] was “binds”.

B5: 57T (dsDNA)
DNA 1: CCTGCGGTATTGACACTTGAGGGGCGCGACTACTGACAGATGAGGGGCGCGATCCTTGACACTTGAGGGGCAGAGTGATGACAGATGAGGGGCGCACCTATTGACATTTGAGGGGCTGTCCACAGGCAG
DNA 2: CTGCCTGTGGACAGCCCCTCAAATGTCAATAGGTGCGCCCCTCATCTGTCATCACTCTGCCCCTCAAGTGTCAAGGATCGCGCCCCTCATCTGTCAGTAGTCGCGCCCCTCAAGTGTCAATACCGCAGG
modifications: 5-Br-dU at T57 of top strand
Take B5: the binding result in data set [2] is “binds”.

B6: 69B (dsDNA)
DNA 1: CCTGCGGTATTGACACTTGAGGGGCGCGACTACTGACAGATGAGGGGCGCGATCCTTGACACTTGAGGGGCAGAGTGATGACAGATGAGGGGCGCACCTATTGACATTTGAGGGGCTGTCCACAGGCAG
DNA 2: CTGCCTGTGGACAGCCCCTCAAATGTCAATAGGTGCGCCCCTCATCTGTCATCACTCTGCCCCTCAAGTGTCAAGGATCGCGCCCCTCATCTGTCAGTAGTCGCGCCCCTCAAGTGTCAATACCGCAGG
modifications: 5-Br-dU in bottom strand: CTCAAG[BrdU]GTCAAGG
On to B6, for which the binding result in data set [2] was “binds”.

B7: 56T (dsDNA)
DNA 1: CCTGCGGTATTGACACTTGAGGGGCGCGACTACTGACAGATGAGGGGCGCGATCCTTGACACTTGAGGGGCAGAGTGATGACAGATGAGGGGCGCACCTATTGACATTTGAGGGGCTGTCCACAGGCAG
DNA 2: CTGCCTGTGGACAGCCCCTCAAATGTCAATAGGTGCGCCCCTCATCTGTCATCACTCTGCCCCTCAAGTGTCAAGGATCGCGCCCCTCATCTGTCAGTAGTCGCGCCCCTCAAGTGTCAATACCGCAGG
modifications: 5-Br-dU at T56 of top strand
For the molecule B7, the binding result in data set [2] was “binds”.

B8: 71B (dsDNA)
DNA 1: CCTGCGGTATTGACACTTGAGGGGCGCGACTACTGACAGATGAGGGGCGCGATCCTTGACACTTGAGGGGCAGAGTGATGACAGATGAGGGGCGCACCTATTGACATTTGAGGGGCTGTCCACAGGCAG
DNA 2: CTGCCTGTGGACAGCCCCTCAAATGTCAATAGGTGCGCCCCTCATCTGTCATCACTCTGCCCCTCAAGTGTCAAGGATCGCGCCCCTCATCTGTCAGTAGTCGCGCCCCTCAAGTGTCAATACCGCAGG
modifications: 5-Br-dU in bottom strand: CAAGTG[BrdU]CAAGG
With B8, in data set [2], the binding result is “binds”.

B9: 37T (dsDNA)
DNA 1: AGTGATGACAGATGAGGGGCGC
DNA 2: GCGCCCCTCATCTGTCATCACT
modifications: C2dT at T15 of bottom strand
Consider B9, for which, in data set [1], the binding result is recorded as “binds”.
